Results reported in the nanobody polyreactivity screen of Harvey et al. (2022).

Assay: yeast display, Sf9 membrane polyspecificity reagent, FACS + sequencing; frameworks hold sequencing errors
Procedure, shortened: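 In a synthetic yeast display library (Saccharomyces cerevisiae BJ5465), nanobody expression was induced with galactose for 36–48 hours. FACS gates were set low and high (top ~1%) using anti-HA fluorescence for expression and streptavidin fluorescence for binding of the Sf9 membrane reagent. Each polyreactivity label is drawn from the gate of origin.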

Sequence	polyreactivity (PSR sort gate)
QVQLVESGGGLVQAGGSLRLSCAASGIIFKYYAMGWYRQAPGKERELVAAISRSSGSTYYADSVKGRFTISRDNAKKTVYLQMNSLKPEDTAVYYCAASGWPQKYDYWGQGTQVTVSS	high polyreactivity
QVQLVESGGGLVQAGGSLRLSCAASGIIFRTYAMGWYRQAPGKERELVAAITGRGSNTYYADSVKGRFTISRDNAKNTVYLQMNSLKPEETAVYYCNARYYDYRVALRYDYWGQGTQVTVSS	high polyreactivity
QVQLVESGGGLVQAGGSLRLSCPASGSTFPYYAMGWYRQAPGKERELVARINWGGSSTYYADSVKGRFTISRDNAKNTVYLQMNSLKPEDTAVYYCARYSSRWSLMDYWGQGTQVTVSS	high polyreactivity
QVQLVESGGGLVQAGGSLRLSCAASGSIFTGNTMGSDRQAPGKERELVAAISRSGGSTYYADSVKGRFTISRDNAKNTVYLQMNSLKPEDTAVYYCAAYRTHGPPRAIRFDYWGQGTQVTVSS	high polyreactivity
QVQLVDSGGGLVQAGGSLRLSCAASGSIIFYNAMGWYRQAPGKERELVAAISRGGNTNYADSVKGRFTISRDNAKNNFYLQMNSLKSEDTAVYYCNADLVQYWGRRRWYDYWGQGTQVTVSS	low polyreactivity
QVQLVESGGGLVQAGGSLRLSCAASGNIFSDNTMGWYRQAPGKERELVAVITSGTSTSYADSVKGRFTISRDNAKNTEYFQMNSLKPEDTAVSYAARTGQYKTYGEYDYWGQGTQVTVSS	low polyreactivity
QVQLVESGGGLVQAGGSLRLSCAACVFIFSRYAMGWYRQAPGKERELVAAISRGGSTNYADSVKGRFTISRDNAKNTVYLQMNSLKPEDTAVYYCAVRQNVRYYYWGQGTQVTVSS	high polyreactivity
QVQLVESGGGLVQAGGSLRLSCAASGRIFAWYVMGWYRQAPRKEREFVAAIRWRSGSTHYADSVKGRFTISRDNAKNTVYLQMNSLKPEDTAVYYCAVDSRTYNGDYWGQGTQVTVSS	high polyreactivity
QVQLQESGGGLVQAGGSLRLSCAASGSISRLDYMGWYRQPSGKERELVAAIDNGSTTYYADSVKGRLTISRDNAKYTVYLQMNSLKPEDTAVYFCAAVRGRGGTHAYWGQGTQVTVSG	low polyreactivity
QVQLVESGGGLVQAGGSLRLSCAASGSTYSYYTMGWYIQAPGKERELVATISRRGASTYYADSVKGRFTISRDNAKNTVYLQMNSLKPEDTAVYYCAKSYYYGRSATRPEYDYWGQGTQVTVSS	high polyreactivity
KVQLVESGGGLVHAGGSLRLSCAASGRIIYYYAMGWYRTAPGKERELVAAISGRGTSTYYADSVKGRFTISRDNAKNTVYLKMNSLKPEDTAVYYCAARYYYWGQGTQVTVSS	high polyreactivity
QVQLVESGGGLVQAGGSLRLSCSACGSIFFYYAMGWYRQAPGKERELVAAITFTGGSTYYADSVKGRFTISRDNAKNTVYLRMNSLKPEDTAVYYCAADWYYGDEYEYWGQGTQVTVSS	high polyreactivity
QVQLVESGGGLVQAGGSLRLSCAASGSTFGSNAMGWYREAPGKERELVAAIDANGGSTYYADSVKGRFTISRDNAKNTVYLQMNSLKPEDTAVYYCAAAGYWYYYVPNDYWGQGTQVTVSS	low polyreactivity
QVQLVESGGGSVQAGGSLRLSCAASGSIFYPYTMGWSRQAPGKERELVAVITGSGGRTYYADSVKGRFTISRDNAKNTVYLQMNSLKPEDTAVYYCNASPFTVRYYKYEYWGQGTQVTVSS	low polyreactivity
QVQLVESGGGLVQAGGSLRLSCAASGSIFYYNAMGWYRQAPGKERELVAAISQRGTRTYYADSVKGRFTISRDNAKNTVYLQMNSLKPEVTAVYYCAAESSSYYGYYIYYYWGQGTQVTVSS	high polyreactivity
QVQLVESGGGLVQAGGSLRLSCAASGFTFGVYAMGWYRQAPGKERELVAAITSGGGRTYADSVKGRFTISRDNAKNTVYLQMNSLKPEDSAVYYCAAQQGISNGTGVSATNPMDYWGQGTQVTVSS	low polyreactivity
QVQLVESGGGLVQAGGSLRLSCAASGSIFYSYAMGWYRRAPGKERELVARITSSTGRTYYADSVKGRFTISRDNAKNTVYLQMNSLKAEDTAVYYCNVVVKGAWDYYPYDYWGQGTQVTVSS	high polyreactivity
